14 substances from patent US20200024330A1 can be followed below.

Some results are limits rather than exact numbers.

Common to all, as to assay: cell-based or functional assay
Experiment [1] has as its target HIV-1 MGRM-C-026 envelope glycoprotein (Env) on pseudovirus (HIV-1).
Experiment [2] concerns the target HIV-1 Env of isolate MGRM-G-028 (subtype G) (HIV-1).
Experiment [3] has as its target HIV-1 Env of isolate 92UG114 (HIV-1).
The target in experiment [4] is HIV-1 92RW021 envelope glycoprotein (Env) on pseudovirus (HIV-1).
The target in experiment [5] is HIV-1 93MW959 envelope glycoprotein (Env) on pseudovirus (HIV-1).
Experiment [6] addresses HIV-1 Env of isolate MGRM-D-012 (clade D) (HIV-1).
The target of experiment [7] is HIV-1 Env of isolate MGRM-D-019 (clade D) (HIV-1).
Experiment [8] concerns the target HIV-1 92RW008 envelope glycoprotein (Env) (HIV-1).
Experiment [9] concerns the target HIV-1 MGRM-C-019 Env (HIV-1).
Experiment [10] addresses HIV-1 JRCSF envelope glycoprotein (Env) on pseudovirus (HIV-1) (UniProt P20871).
Experiment [11] deals with HIV-1 Env of isolate MGRM-G-015 (subtype G) (HIV-1).
The target of experiment [12] is HIV-1 Env of pseudovirus 6535.3 (Acute), clade B (HIV-1).
Experiment [13] addresses HIV-1 93TH305 Env (pseudovirus) (HIV-1).
Experiment [14] deals with HIV-1 Env of isolate MGRM-C-001 (pseudovirus) (HIV-1 isolate MGRM-C-001, subtype C).
The target in experiment [15] is HIV-1 Env of isolate MGRM-F1-018 (HIV-1).
Experiment [16] concerns the target HIV-1 THR0.18 Env (pseudovirus) (HIV-1).
For experiment [17], the target named is HIV-1 Env of isolate MG RM-D-001 (subtype D) (HIV-1).
Experiment [18] has as its target HIV-1 MGRM-Chronic-B-023 Env (pseudovirus) (HIV-1).
In experiment [19] the target is HIV-1 Env of isolate 92UG001 (subtype D) (HIV-1).
Experiment [20] has as its target HIV-1 CAAN.A2 Env (pseudovirus) (HIV-1).
The target of experiment [21] is HIV-1 VLGCB3 Env (pseudovirus) (HIV-1).
The target of experiment [22] is HIV-1 92UG005 envelope glycoprotein (Env) on pseudovirus (HIV-1).
For experiment [23], the target named is HIV-1 Env of isolate MGRM-C-019 (pseudovirus) (HIV-1 isolate MGRM-C-019, subtype C).
In experiment [24] the target is HIV-1 MGRM-Chronic-B-020 Env (pseudovirus) (HIV-1).
Experiment [25] concerns the target HIV-1 JR-CSF Env L125A (HIV-1 (isolate JR-CSF)) (UniProt P20871).
Experiment [26] addresses HIV-1 JR-CSF Env N188A (HIV-1 (isolate JR-CSF)) (UniProt P20871).
Experiment [27] has as its target HIV-1 JR-CSF Env K168A (HIV-1 (isolate JR-CSF)) (UniProt P20871).
Experiment [28] has as its target HIV-1 Env of isolate MGRM-G-024 (HIV-1).
For experiment [29], the target named is HIV-1 93UG077 envelope glycoprotein (Env) (HIV-1).
Experiment [30] addresses HIV-1 Env of isolate SC422661.8 (HIV-1).
Experiment [31] has as its target HIV-1 Env of isolate MGRM-Chronic-B-003 (HIV-1).
The target of experiment [32] is HIV-1 Env of isolate CAAN.A2 (HIV-1).

As usually defined, the IC50 is the concentration needed to halve the response being measured. The low end stands for inhibition by little substance, the high end for a need for much substance.

Take 1496_C09 (PG9) (TCN-109) (antibody): the values for the IC50 (ug/ml), neutralizing activity in experiment [1] and in [10] were 0.113 µg/mL and 0.0048 µg/mL, respectively. Moreover, the IC50 neutralization was found to be 0.113 µg/mL in [1] and 0.0048 µg/mL in experiment [10]. The figures for the neutralization IC50 in [2] and in experiment [11] were 0.891 µg/mL and 6.6 µg/mL, respectively. For the same substance, the IC50 (µg/mL), pseudovirus neutralization in experiment [3] amounted to 40.6 µg/mL. Further, the IC50 (µg/ml), pseudovirus neutralization in [4] turned out to be 0.05 µg/mL; in [5] it was 0.04 µg/mL; in experiment [6] it was 9.31 µg/mL; in experiment [7], 0.03 µg/mL; in experiment [8] it was 0.01 µg/mL; in experiment [12], 0.22 µg/mL. This substance also showed an IC50 in experiment [9] of 0.01 µg/mL. Besides, in experiment [10], the IC80, neutralization was 0.0181 µg/mL. Besides, the IC90, neutralization in experiment [10] came to 0.0391 µg/mL. In addition, the IC95, neutralization in [10] was determined as 0.0798 µg/mL.
For 4838_L06 (PGT-121) (antibody), the IC50, pseudovirus neutralization in [13] is 0.007 µg/mL; in experiment [16], above 50 µg/mL; in [18], 0.005 µg/mL; in [20], 0.011 µg/mL; in [21], 0.005 µg/mL; in experiment [24], 0.004 µg/mL. Further, the IC50 (µg/mL) neutralization in experiment [14] was 17.5 µg/mL; in experiment [23] it was above 50 µg/mL. For the same substance, the IC50 in experiment [15] was 0.04 µg/mL. Besides, the IC50 (µg/mL), pseudovirus neutralization in experiment [17] is 0.615 µg/mL; in experiment [19] it was above 50 µg/mL. Further, the IC50 (ug/ml), neutralizing activity in [22] was above 10 µg/mL.
For 4858_P08 (PGT-123) (antibody), the Fold IC50 increase relative to wild-type in experiment [25] came to 2.5 fold; in experiment [26] it was 1.1 fold; in experiment [27], 0.8 fold. Also, the IC50 (ug/ml), neutralizing activity in experiment [1] worked out at 0.0031 µg/mL; in experiment [22], 2.49 µg/mL; in experiment [10], 0.0423 µg/mL. For the same substance, the IC50, pseudovirus neutralization in experiment [1] is 0.0031 µg/mL; in experiment [13] it was 0.008 µg/mL; in [16], above 50 µg/mL; in experiment [18] it was 0.055 µg/mL; in [20], 0.015 µg/mL; in experiment [21] it was 0.004 µg/mL. Moreover, the IC50, pseudovirus neutralization was 2.49 µg/mL in [22], 0.005 µg/mL in experiment [24], 0.0423 µg/mL in experiment [10] and 0.032 µg/mL in [28]. Moreover, the IC80, pseudovirus neutralization was 0.0094 µg/mL in experiment [1], above 10 µg/mL in experiment [22] and 0.143 µg/mL in experiment [10]. In addition, the IC90 (pseudovirus neutralization) in [1] was 0.0183 µg/mL; in experiment [22], above 10 µg/mL; in [10], 0.289 µg/mL. Also, the IC95, pseudovirus neutralization was 0.0338 µg/mL in [1], above 10 µg/mL in experiment [22] and 0.547 µg/mL in [10]. In addition, the IC50 (µg/mL) neutralization is 42.4 µg/mL in experiment [14] and above 50 µg/mL in experiment [23]. The substance also registered an IC50 in [15] of 0.054 µg/mL. Further, the IC50 (µg/mL), pseudovirus neutralization in [17] was 0.147 µg/mL; in experiment [19] it was above 50 µg/mL.
Take 4877_D15 (PGT-122) (antibody): the IC50 (ug/ml), neutralizing activity in [1] was 0.0089 µg/mL; in [22], above 10 µg/mL; in experiment [10], 0.0727 µg/mL. The IC50, pseudovirus neutralization in [13] was 0.013 µg/mL; in [16], above 50 µg/mL; in experiment [18], 0.01 µg/mL; in experiment [20] it was 0.011 µg/mL; in experiment [21], 0.008 µg/mL; in [24], 0.005 µg/mL. The substance further gave an IC50, pseudovirus neutralization in [28] of 0.033 µg/mL. Further, the IC50 (µg/mL) neutralization in [14] was 19.1 µg/mL; in experiment [23] it was above 50 µg/mL. Moreover, in [15], the 50% inhibitory concentration (IC50) turned out to be 0.563 µg/mL. Besides, the figures for the IC50 (µg/mL), pseudovirus neutralization in [17] and in experiment [19] were 1.13 µg/mL and above 50 µg/mL, respectively.
With 5123_A06 (PGT-125) (antibody), the Fold IC50 increase relative to wild-type was 1.6 fold in [25], 0.7 fold in experiment [26] and 0.9 fold in experiment [27]. Besides, the IC50 (ug/ml), neutralizing activity in experiment [1] was 0.0106 µg/mL; in experiment [22] it was above 10 µg/mL; in [10], 0.006 µg/mL. Further, the neutralization IC50 in experiment [1] is 0.0106 µg/mL; in experiment [22], above 10 µg/mL; in [10], 0.006 µg/mL. The neutralization IC80 in experiment [1] was 0.035 µg/mL; in experiment [22], above 10 µg/mL; in [10], 0.0196 µg/mL. Also, the results for the neutralization IC90 in experiment [1], in [22] and in experiment [10] were 0.0705 µg/mL, above 10 µg/mL and 0.0392 µg/mL, respectively. Further, the neutralization IC95 in [1] is 0.134 µg/mL; in experiment [22], above 10 µg/mL; in experiment [10], 0.0741 µg/mL. Further, the IC50, pseudovirus neutralization in [13] is 0.008 µg/mL; in [16], above 50 µg/mL; in experiment [18], above 50 µg/mL; in [20], 5.47 µg/mL; in [21], 0.015 µg/mL; in experiment [24] it was 0.087 µg/mL. In [28], this substance showed an IC50, pseudovirus neutralization above 50 µg/mL. Also, the figures for the IC50 (µg/mL) neutralization in [14] and in experiment [23] were above 50 µg/mL and 0.13 µg/mL, respectively. The same substance came in with an IC50 in experiment [15] above 50 µg/mL. Also, the IC50 (µg/mL), pseudovirus neutralization was 2.84 µg/mL in experiment [17] and above 50 µg/mL in experiment [19].
With 5145_B14 (PGT-127) (antibody), the Fold IC50 increase relative to wild-type is 1.4 fold in [25], 0.8 fold in experiment [26] and 1.9 fold in [27]. The IC50, pseudovirus neutralization in experiment [13] is 0.017 µg/mL; in [16] it was above 50 µg/mL; in [18], above 50 µg/mL; in experiment [20] it was 0.371 µg/mL; in [21] it was 0.022 µg/mL; in experiment [24], 0.05 µg/mL. The IC50, pseudovirus neutralization in experiment [28] is above 50 µg/mL. Moreover, the IC50 (µg/mL) neutralization in experiment [14] was above 50 µg/mL; in experiment [23] it was 0.017 µg/mL. In experiment [15], this substance displayed a half-maximal inhibitory concentration (IC50) of 3.59 µg/mL. Besides, the values for the IC50 (µg/mL), pseudovirus neutralization in experiment [17] and in experiment [19] were 2.23 µg/mL and above 50 µg/mL, respectively.
In experiment [29], PGT-121 (antibody) had an IC50 neutralization of 0.0459 µg/mL.
The same measure, in the same setting: the result for PGT-122 (antibody) reads 0.191 µg/mL.
PGT-141 (4964_G22; 4993_K13) (antibody): the neutralization IC50 is 24.9 µg/mL in [2] and above 50 µg/mL in [11].
Taken in the same sequence, the figures for PGT-142 (4995_E20) (antibody) were 30.3 µg/mL and above 50 µg/mL.
Turning to PGT-143 (4980_N08) (antibody), the figures for the neutralization IC50 in experiment [2] and in experiment [11] were 43 µg/mL and above 50 µg/mL, respectively.
Taken in the same sequence, the figures for PGT-144 (4970_K22) (antibody) were above 50 µg/mL and above 50 µg/mL.
For PGV04 (antibody), the figures for the neutralization IC50 in experiment [2] and in experiment [11] were 0.352 µg/mL and 0.333 µg/mL, respectively. Besides, the IC50 (µg/mL), pseudovirus neutralization in experiment [3] is 0.461 µg/mL.
For VRC01 (antibody), the neutralization IC50 in experiment [2] is 0.164 µg/mL; in [30], 0.179 µg/mL; in experiment [11], 0.548 µg/mL. Moreover, in experiment [15], the IC50, pseudovirus neutralization worked out at 0.032 µg/mL. Further, the IC50 in [31] is 0.1 µg/mL; in [32], 0.722 µg/mL.
